This passage reports protein production results from a protein production outcome set (Wang et al. 2014).

The nature of the series: label from the status in PepcDB records.
For “MDKPILKDSMKLFEALGTIKSRSMFGGFGLFADETMFALVVNNQLHIRADQQTSSDFETQGLKPYVYKKRGFPVVTKYYAISSELWESSDRLIEVAKKSLENAKLEKEQQASTKPNRLKDLPNLRLATERMLKKAGIDSVAQLEEEGALSAYKAIRDTHSTTVSLELLWALEGAINGTHWSVVPQSRREELMNGLS”, the protein production entry is reported as “not failed”.

Turning to “MDKRIDLTEGKITSNLIKLSIPIMATSFIQMAYNMADMIWVGRIGSNAVAAVGTAGFFPWLGMAFVMISKVGAEIKVAQSLGRNDIDSTKDYIKSAFQINIILAIIYSIILLLFNSQLIGFFDLGDAEVIKMAKTYLIAVALGMIFNFLNPVFTAVFTGSGDSRIPFIANTIGLIFNIVFDPILIFGIGIFPEMGVLGAALATVLAQVIVTVTFLYIMIKSKAEYLKINILSGIKINCMKTLFHIGLPAALQSGLFTVFSMFIGKIVAVFGPVPIAVQKVGSQVEAIAWMTAGGISTALSTFVGQNYGAGKLKRIVKGFNITMIISLIVGVFASLVLIFFGEEIFRIFIPEAQAIEQGTVYLKILGYCQILVCVEITTTGAFNGLGRTYIPSIISILLTGARIPMAYIMCKPEFLGLEGIWWAISITGALKGVVVYAIYRYLYKKNKLFKVYKDENGEECISI”, the protein production result is on record as “failed”.

On to “MDKRLQQDRIVDKMERFLSTANEEEKDVLSSIVDGLLAKQERRYATYLASLTQIESQEREDGRFEVRLPIGPLVNNPLNMVHGGITATLLDTAMGQMVNRQLPDGQSAVTSELNIHYVKPGMGTYLRAVASIVHQGKQRIVVEGKVYTDQGETVAMGTGSFFVLRSRGLEHHHHHH”, for which the protein production result is on record as “not failed”.

“MDKTDSIDIDKQVNTDELFGHPKGLYICFATELWERFSFYGMKYLLLLYLTKYHLFSDGEGLEVLGSYAGLVYTLPVIGGMLADRYLGMKKSVIFGGILLCLGHLLMAVEGHQAVQYAAGTILTSDLTLNNGAVLSAGTLLTETIKIQDLAALNVFYFALSLIVVGVGFLKPNISTIVGQLYSKDDPRRDSGFTIFYMGINLGSFAATIICVYLGETYGWRYGFGAAGIGMLFGLVTFTKGLKYLRGLAEPPDVAVLSEKVWGLISREYLIYLTAILSLSVFWLVIQHEPVVFAAQQVLLVVSGVGLIGYAALKGSREEFQQMLVLMVLIGSTIVFWALFEQAAGSMTLFADRVVERNIAGIEITAGQFGALNAGFIIMLALPFAALWVWLEKFRLNPNIPIKFALGIIQAGLGFGVLVFGAQFPDEAGKISLWWLVLAYLIHTTGELCLSPVGLSAVTKLAIHRVVGLSMGVWFLATALSETLAMRLGKLAAIDTQGGELNSVSDNLIIYTQLFEFLMWIGIGTGVVVLLISPLLKRGMHGVR”: the protein production entry was “failed”.

In the case of “MDKTIYEQMLLKNYKGAEGAEEAWDARANHFYKSQQRGRSELVEKVTAILQERGLLAGADLLDIGGGSGRYAVPFAAHAEHVTITDISANMLELARRNAQEAGVTNLTYAKLEWTGADLAAWQWRKRFDLVFASMCPAIRSPEGLYKMLEAAKGFCLINQYIEATDSLSAYLTQVLDPPRSYEPYNDRDMVQAVFNLLWLEGYEPEICYLRQREVTSFTVEGAVEQYGGRYHQAAQLKRMDLAELISRHAGQVTFSVDSKATLAMILWKV”, the protein production result is “failed”.

“MDKVFGRTQGLKKSELKRISNLYRRRLPKDRVLTPELAHTLAALSAEVGRPLSLVLDREGRVVRVAVGDAKDVPFPEEGWSERRLSGYRLLHTHLGPGGLSRPDLSVLFLRRLDNLAALEVEADGRPGLLHLAFLSPPRALEEDWRVLPPKPFHQYLDLDLWGEVMALEEELSRQARVLEVRDGSGERALLVGVDTGEGPEAEAVLRELAELTRTAGGVPVKQILVFRKSLDPRYLVGLGKLEELKSLAYHENASTLIFGVDLTPAQAREIERVTGLKVLDRTQLILDIFALHAKTPEAQAQVELAQLRYLLPRLVGKGKEMSRLGGGIGTRGPGETKLEVDRRRLQDRIAHLSRKLQDYALRRQEARQKRKRRGVPLVAVVGYTNAGKTTLLRALTRAGEEGEDKLFATLRPLTRRGFLPGVGEVLFTDTVGFIRHMPEELLTAFRATLEEVREADVLVHVLDASEEGALERHRVVRDLLLDLGVEAPVVLALNKADRAAPYDLYFLGERLGGVPVSALKGTGLKELKEALARALLDLGVRPQAWAQYT”: the protein production entry is reported as “failed”.

Consider “MDKYLSANSLEGVIDNEFSMPAPRWLNTYPAGPYRFINREFFIIAYETDPDLLQAILPPDMELLEPVVKFEFIRMPDSTGFGDYTESGQVVPVRYKGEEGGFTISMFLDCHAPIAGGREIWGFPKKLAKPKLFVEEDTLIGILKYGSIDIAIATMGYKHRPLDAEKVLESVKKPVFLLKNIPNVDGTPLVNQLTKTYLTDITVKGAWTGPGSLELHPHALAPISNLYIKKIVSVSHFITDLTLPYGKVVADYLA”, for which the protein production result was “not failed”.

As to “MDLDNLFKTTSSSKDKKNNTIDLVVSDDMAFLQAIDELYAIEGFASPLKVDDIDDESWHKTSAEIKHVVLDLRDCGELVSEVAEISSRLDVSISLIVLSNTDSILMRDKVLSLGANYILWDPELDGLLGALKESGKDTFSPTVKKKSRIAKRVLMLGSKGGVGVSTISAFLSHSLSQQASLKTLLVEHDTLALNSDIFLGLKGLKAQQNSIDLNQSELDAAIAGSYVHPIKDKLDFLALEKNIACISDHADSLFRISNELVDQYNFIIDSLPLNAINELTSEDINERYNRIFVVCEPSVASLRAYHSIKKKLGKAEHRIIFSMTRSQKDYMMPLQGAKEKIKAKDTIDFVYEANLEKLIIQQGIHNTAKIKFTPAIANMVNSLTGKKVKVQKKFAWFKK”, the protein production result was “failed”.

Consider “MDLFLAMRVYVKVVETGSLTAAAQACSISTTMVGNHLRALEQRLGVSLLQRTTRRQRLTEFGTAYYQRCLEVLGLVAQSEQLAEQAQGEPTGTLRITAPLTFGSELLAPALVGFSQRFPDVKLDLVLTNQRLDMIDNGFDVAIRLGNLAQSSPLIARPLQDYTLTICAAPDYLARHSAPTRPEDLRAHNCLAFAYPAGDEWRTAGTQWRMTGPEGEVLVDVDGSMVANTSAGLYQAARAGMGVVMLPDALVQRDLQEGRLVALLPDYHLPRRPMNLLYVQDRYRLPKLRSFVEFATALWGR”, for which the protein production entry was “failed”.

In the case of “MDLFNAPIAPLQVLHDQQGGVRYWPHLLPPALAQEAFDALRDDADWRSQRREMYDRVVDVPRLLASYRLDDALPAGLPLQRLLDAVQAVLPAPYNAVGLNLYRDGRDSVAMHHDALHTLVAPHPIALLSLGTPRRMQLRAKDGSTRAVALELAPGSLLAMSHASQHTHVHGIAKSTRAVGERISVVFRVRPAQRMAAGQHGPHWEPVQS”, the protein production entry is “failed”.

Take “MDLGYLKSKESGFIAGMILCTAFMGSSFPSGKYLISEEAMPAFYAGGWRFLLAGGLILAFCAAKDGLGAILPASGGSVIKGALFVLVVGCLQTAGTMGFLNLALTTLSASMASLLLFTNPLWVAILAHFALGETLSWHKVVALVCGILGVSLCLGGGADHGLGGIVIALAGSLCWALCTLISKKHKFDKSVFVFTGWQLTLGALVMLAISKLSGEAYDIDRITGWGIACFIWLVGPASIGSFGLWFTALSRRGATVTSSYLFLVPLFSAVFSMMVLGEAVSPHSLIGGAIIIVALWLINLPQTVSAVWRERLGL”: the protein production entry is listed as “failed”.

With “MDLIGLRIRNIRKIKQLTLKEAAKGIISVPYLANIENGVKVASFETLMHIAKRLEIPEEALLIGNEDLNKELLQELKQIFDLLVFSNTKEAGDRLDQIAANVDLLCESPVIELSFYWLQAGFYYKTWEFSKAREIERKYLNSNEKRVVESFPPDLLSYYYYGQAVKHSHATCDYQLAVEYWEKSIDLTDKAAFQVVFQVGLCINYICLNNYEPALKHIECAWNLIKRFPSKDQERITAILYLYGYINFQIGFMTEAKRKFEEVLVFFNMYPEAKTMYSFLVRFKLAEIERVEGNHELFDEKIVCLYEELMAHEASEIGFNNNDYLVITELMVIFAEQGSVLEASNLLAIINKVTEQVMEINFFVTYTETLLLYHQNKQSSYEKKMLDLLKKIDESNDPALIERVKKHASKHFADSTKYKMAYNILA”, the protein production result is given as “failed”.

Regarding “MDLPVDEWKSYLLQKWASLPTSVQVTISTAETLRDIFLHSSSLLQPEDELFLKRLSKGYLVGKDSDAPLFYREEGNKKFQEKDYTGAAVLYSKGVSHSRPNTEDMSLCHANRSAALFHLGQYETCLKDINIAQTHGYPERLQPKIMLRKAECLVALGRLQEASQTISDLERNFTATPALADVLPQTLQRNLHRLKMKMQEKDSLTESFPAALAKTLEDAALREENEQLSNASSSIGLCVDPLKGRCLVATKDILPGELLVQEDAFVSVLNPGELPPPHHGLDSKWDTRVTNGDLYCHRCLKHTLATVPCDGCSYAKYCSQECLQQAWELYHRTECPLGGLLLTLGVFCHIALRLTLLVGFEDVRKIITKLCDKISNKDICLPESNNQVKTLNYGLGESEKNGNIVETPIPGCDINGKYENNYNAVFNLLPHTENHSPEHKFLCALCVSALCRQLEAASLQAIPTERIVNSSQLKAAVTPELCPDVTIWGVAMLRHMLQLQCNAQAMTTIQHTGPKGSIVTDSRQVRLATGIFPVISLLNHSCSPNTSVSFISTVATIRASQRIRKGQEILHCYGPHKSRMGVAERQQKLRSQYFFDCACPACQTEAHRMAAGPRWEAFCCNSCGAPMQGDDVLRCGSRSCAESAVSRDHLVSRLQDLQQQVRVAQKLLRDGELERAVQRLSGCQRDAESFLWAEHAVVGEIADGLARACAALGDWQKSATHLQRSLCVVEVRHGPSSVEMGHELFKLAQIFFNGFAVPEALSTIQKAEEVLSLHCGPWDDEIQELQKMKSCLLDLPPTPVGPAL”, the protein production entry is recorded as “failed”.

“MDLRRRQWFLSAILLSAALLIDPQFSTAATASENLVFEVRSKFAGKRVKDLGALRAHDVHRHSRLLSAIDIPLGGDSQPESIGLYFAKIGLGTPSRDFHVQVDTGSDILWVNCAGCIRCPRKSDLVELTPYDVDASSTAKSVSCSDNFCSYVNQRSECHSGSTCQYVIMYGDGSSTNGYLVKDVVHLDLVTGNRQTGSTNGTIIFGCGSKQSGQLGESQAAVDGIMGFGQSNSSFISQLASQGKVKRSFAHCLDNNNGGGIFAIGEVVSPKVKTTPMLSKSAHYSVNLNAIEVGNSVLELSSNAFDSGDDKGVIIDSGTTLVYLPDAVYNPLLNEILASHPELTLHTVQESFTCFHYTDKLDRFPTVTFQFDKSVSLAVYPREYLFQVREDTWCFGWQNGGLQTKGGASLTILGDMALSNKLVVYDIENQVIGWTNHNCSGGIQVKDEESGAIYTVGAHNLSWSSSLAITKLLTLVSLLIPFFCNVAL”: the protein production result was “not failed”.

For “MDLSGVKKKSLLGVKENNKKSSTRAPSPTKRKDRSDEKSKDRSKDKGATKESSEKDRGRDKTRKRRSASSGSSSTRSRSSSTSSSGSSTSTGSSSGSSSSSASSRSGSSSTSRSSSSSSSSGSPSPSRRRHDNRRRSRSKSKPPKRDEKERKRRTLSPKPTKVHIGRLTRNVTKDHIMEIFSTYGKIKMIDMPVERMHPHLSKGYAYVEFENPDEAEXALKHMDGGQLMARDHCYCCVGTLASATTSRFSPPRRMLPPPPCGVGHPHG”, the protein production result is listed as “not failed”.

With “MDLSSPSSFTATIDAPLRAAVFDSAVEAVLLVDPTLDQIVDANNAASALLGHDRDTLLQTRFSALHGAQLPALVVFTQAVFAKGTYWTHALTPLHADGTQLRLEYAGKLLPYRGRSLLLLTMSDLEQ”, the protein production entry was “failed”.

As for “MDNDKYLKGTTTVGVVCTDGIVLASEQRATMGHFIASKTAKKVYQIDDLVGMTTAGSVGDAQQLVRLVSVESQLYKMRRNESMTIKGIATLMSNFLNANRYYPMMVQLLIGGVDKNGPAIYSLDPMGGSIEETRISATGSGSPMAYGVLEDQYREDIAVKEGLDLAIRAIHNATKRDSASGENIDVVVITKEAFKRLDPEEVKSRRALLN”, the protein production entry was “failed”.

Take “MDNEMNYGSDYKFIPATSIESGHGIEVLRDLFCYTIQIVNICFVGNPETNDFVLVDAGMPKCANEIISIAKDRFGTNSRPKAIILTHGHFDHVGGIIELIKHWDVHVYAHQMEIPFLTGQQSYPEPDPTVEGGMVAKMSPLFPNEPIDLGNNVKALPTDGTVPHMPEFRWIHTPGHTPGHISLFREKDRTLIAGDAFVTVKQEYLYKVITQEQEISGPPRYLTTDWKAAKESVLKLEKLKPLTAVTGHGIPMSGELLSTSLKTLVQEFDKIAVPDYGKYIDKKMHLEHHHHHH”: the protein production result was “not failed”.
